Data taken from patent US20210130453A1 (AstraZeneca / MedImmune, published 2021).

T1: recombinant human LIFR (human, UniProt P42702 45-833, limits assumed)
T1 construct: also called hLIFR
T1 sequence (looked up): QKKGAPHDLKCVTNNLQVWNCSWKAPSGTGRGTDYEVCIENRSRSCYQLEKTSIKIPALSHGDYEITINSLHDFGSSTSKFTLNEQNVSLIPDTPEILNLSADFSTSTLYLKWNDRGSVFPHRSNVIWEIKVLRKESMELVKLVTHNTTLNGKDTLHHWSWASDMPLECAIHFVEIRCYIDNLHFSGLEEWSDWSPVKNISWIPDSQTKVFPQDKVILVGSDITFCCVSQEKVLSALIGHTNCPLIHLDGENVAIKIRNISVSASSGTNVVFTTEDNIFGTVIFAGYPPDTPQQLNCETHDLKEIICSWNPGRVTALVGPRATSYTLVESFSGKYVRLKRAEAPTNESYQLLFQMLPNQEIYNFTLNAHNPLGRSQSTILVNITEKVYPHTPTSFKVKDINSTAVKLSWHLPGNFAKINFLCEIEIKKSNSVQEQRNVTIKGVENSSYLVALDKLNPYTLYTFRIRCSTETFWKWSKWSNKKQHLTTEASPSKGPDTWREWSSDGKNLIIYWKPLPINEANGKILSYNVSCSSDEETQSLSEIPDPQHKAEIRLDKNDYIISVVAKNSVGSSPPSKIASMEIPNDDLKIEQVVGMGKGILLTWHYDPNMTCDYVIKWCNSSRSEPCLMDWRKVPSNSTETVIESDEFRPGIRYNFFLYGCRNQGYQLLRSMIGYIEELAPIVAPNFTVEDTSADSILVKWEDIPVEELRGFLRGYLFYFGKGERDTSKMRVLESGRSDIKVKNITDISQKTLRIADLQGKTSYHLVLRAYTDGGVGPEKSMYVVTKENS

T2: recombinant human gp130 (human, UniProt P40189 23-619, limits assumed)
T2 sequence (looked up): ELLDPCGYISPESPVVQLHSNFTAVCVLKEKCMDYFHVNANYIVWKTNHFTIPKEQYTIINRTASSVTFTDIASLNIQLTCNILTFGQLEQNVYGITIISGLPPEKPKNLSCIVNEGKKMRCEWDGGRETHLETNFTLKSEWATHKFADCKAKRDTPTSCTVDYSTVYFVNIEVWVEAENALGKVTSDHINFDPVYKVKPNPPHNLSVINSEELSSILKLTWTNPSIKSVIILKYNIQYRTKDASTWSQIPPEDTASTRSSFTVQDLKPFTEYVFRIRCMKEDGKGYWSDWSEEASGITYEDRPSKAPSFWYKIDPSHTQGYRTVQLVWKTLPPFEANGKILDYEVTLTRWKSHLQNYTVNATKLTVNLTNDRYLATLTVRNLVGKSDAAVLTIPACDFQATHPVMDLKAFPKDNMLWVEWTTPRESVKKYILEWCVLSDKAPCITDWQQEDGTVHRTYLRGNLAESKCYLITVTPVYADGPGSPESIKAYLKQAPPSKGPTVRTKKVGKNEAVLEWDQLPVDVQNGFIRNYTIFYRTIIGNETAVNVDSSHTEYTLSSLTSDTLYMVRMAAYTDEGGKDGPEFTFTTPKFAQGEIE

B1: human LIF (source not stated) (ligand)
chain: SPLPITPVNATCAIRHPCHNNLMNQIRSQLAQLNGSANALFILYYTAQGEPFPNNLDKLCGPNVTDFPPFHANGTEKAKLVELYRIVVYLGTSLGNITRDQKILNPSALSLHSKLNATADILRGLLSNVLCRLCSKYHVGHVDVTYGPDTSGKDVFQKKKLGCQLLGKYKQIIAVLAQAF
notes: also called hLIF; endogenous LIF of U-251 cells

Tests used:
recombinant human LIFR = target: T1, recombinant human LIFR; experiment: BLI (Octet RED96) control experiment, h5D8 on AHC sensors
human IL-6 (E. coli) = target: T3, human IL-6 (E. coli) (human, UniProt P05231 30-212, limits assumed); experiment: BLI (Octet), h5D8 amine-coupled to AR2G sensors, cytokine analyte; legend: ND = no binding
T3 construct: also called huIL-6 (E. coli)
T3 sequence (P05231 30-212 limits assumed): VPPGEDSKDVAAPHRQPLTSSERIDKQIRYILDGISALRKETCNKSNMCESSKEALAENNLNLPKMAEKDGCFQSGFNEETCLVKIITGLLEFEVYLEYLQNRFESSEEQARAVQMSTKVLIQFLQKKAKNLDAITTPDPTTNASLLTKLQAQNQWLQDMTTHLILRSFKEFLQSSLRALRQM
Procedure: 9.0.0.26 as follows: Amine Reactive 2ndGeneration Biosensors (AR2G) were hydrated for a minimum of 15 minutes in water. […] Kinetics experiments were then performed with the following Dip and Read steps at 30° C., 1000 rpm: vi) 60 seconds Baseline in 1× kinetics buffer; vii) 180 seconds Association of appropriate serial dilutions of a cytokine in 1× kinetics buffer; viii) 300 seconds Dissociation in 1× kinetics buffer; ix) Three Regeneration/Neutralization cycles alternating between 10 mM glycine pH 2.0 and 1× kinetics buffer respectively (5 seconds in each for 3 cycles). Following regeneration, the biosensors were reused for subsequent binding analyses.

[1] = target: B1; experiment: cell-based or functional assay
recombinant human gp130 = target: T2, recombinant human gp130; experiment: ELISA: LIF pre-incubated with B09, added to a plate coated with gp130, detected through the antibody with peroxidase anti-rat IgG

| Binder | binding result (recombinant human LIFR) | binding result (human IL-6 (E. coli)) | IC50 for biological inhibition (pSTAT3, U-251 cells, serum starved, endogenous LIF) [1] | binding result (recombinant human gp130) |
| --- | --- | --- | --- | --- |
| h5D8 (humanized 5D8, H2L2) (antibody, V domains shown, Humanized by CDR grafting from rat 5D8; also called G (H2L2); H5D8-1 IgG) VH: QVQLQESGGGLVKPGGSLRLSCAASGFTFSHAWMHWVRQAPGKGLEWVGQIKAKSDDYATYYAESVKGRFTISRDDSKNTLYLQMNSLKTEDTAVYYCTCWEWDLDFWGQGTMVTVSS VL: DIVMTQTPLSSPVTLGQPASISCRSSQSLLDSDGHTYLNWLQQRPGQPPRLLIYSVSNLESGVPDRFSGSGAGTDFTLKISRVEAEDVGVYYCMQATHAPPYTFGQGTKLEIK | no binding | no binding | 490 picomolar | – |
| B1 | – | – | – | binds |
